What is called Kd is a measure of binding affinity in units of concentration. For orientation: EC50 means the concentration giving half of the maximal effect. Usually koff stands for the first-order rate constant of dissociation. Usually kon stands for the rate constant with which the complex forms.

The source of these data is patent US20150166643A1 (Alexion, published 2015).

For assay [1], the target named is T1, human factor B (purified, Complement Technology A135) (human, UniProt P00751 26-764).
T1 construct: also called fB; human complement factor B
T1 sequence (P00751 26-764): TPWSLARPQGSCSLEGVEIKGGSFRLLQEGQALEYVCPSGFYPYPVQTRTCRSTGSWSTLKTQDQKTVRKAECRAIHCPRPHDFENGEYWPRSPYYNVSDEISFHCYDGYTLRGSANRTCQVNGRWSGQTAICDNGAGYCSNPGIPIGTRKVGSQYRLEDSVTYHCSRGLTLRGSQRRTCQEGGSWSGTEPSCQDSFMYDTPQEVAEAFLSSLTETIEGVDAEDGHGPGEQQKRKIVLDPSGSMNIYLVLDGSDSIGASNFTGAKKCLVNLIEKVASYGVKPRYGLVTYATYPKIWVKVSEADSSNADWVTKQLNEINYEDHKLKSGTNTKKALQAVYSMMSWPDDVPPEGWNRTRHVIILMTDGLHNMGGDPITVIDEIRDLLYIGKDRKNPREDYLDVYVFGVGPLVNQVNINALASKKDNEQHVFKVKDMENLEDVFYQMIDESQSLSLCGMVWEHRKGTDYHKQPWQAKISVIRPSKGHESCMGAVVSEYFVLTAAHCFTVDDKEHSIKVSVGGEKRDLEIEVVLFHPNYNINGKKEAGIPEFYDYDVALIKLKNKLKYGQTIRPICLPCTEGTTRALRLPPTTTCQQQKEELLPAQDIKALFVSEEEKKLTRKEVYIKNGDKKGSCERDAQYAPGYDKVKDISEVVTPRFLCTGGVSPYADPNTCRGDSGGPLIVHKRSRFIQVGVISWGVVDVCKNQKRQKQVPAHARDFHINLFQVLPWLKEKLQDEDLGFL
Description: SPR, factor B on surface, Fab flowed (summary table). From the text: (§1) Binding kinetics of TA106 Fab and variant S33A Fab (CLS016) were further characterized using Surface Plasmon Resonance (SPR) technology. In one exemplary experiment, both Fabs were captured on chips of a Biacore 3000 analyzer and samples of human factor B of different concentrations were flowed as the antigen over the surface to model soluble human factor B binding, using protocols recommended by the manufacturer and described previously in the instant disclosure. […] In another exemplary experiment, the affinities of both Fabs were also measured by reversing the orientation of the previous experiment. Specifically, human factor B was directly coupled to one flow cell of a CM5 chip. The second flow cell was used as a blank reference with no coupled ligand. CLS016 or TA106 Fab was then flowed on both flow cells. Concentrations between 0.19 to 25 nM were run with duplicates. The surface was regenerated between each cycle.

In assay [2] the target is T1, human factor B (purified, Complement …). Nature of the assay: ELISA, plate coated with human factor B, anti-human kappa light chain HRP. Here is the method: The binding activities of these mAbs towards factor B were analyzed by ELISA using standard protocols. In one exemplary experiment, MaxiSorp™ ELISA plates (Nunc, #439454, Rochester, N.Y.) were coated with 50 μL of human factor B (Complement Technology, A135, 1 mg/mL, lot 14c) at a concentration of 0.5 μg/mL in carbonate coating buffer (0.795 g carbonate+1.46 g bicarbonate+1 mL 1% NaN₃ (final concentration of 0.002%) in 500 mL water, pH 9.6 (lot 02 August 10)). Plates then were covered with plate sealers and incubated at 37±1° C. for one hour. Following coating, wells were emptied of reagent and washed in a BioTek® ELx405 plate washer (BioTek, Winooski, Vt.) for three times with 200 μL wash solution (PBS/0.05% Tween 20) per well. Following washes, wells were blocked with 100 μL of BSA (1% w/v) and incubated for one hour at room temperature. Wells were then washed again as described above. Fifty microliter samples (i.e., TA106 Fab, CLS011 mAb, CLS012 mAb, and CLS013 mAb) were then added to wells and incubated for one hour at room temperature. […] The plate was read on a Benchmark™ microplate reader (Bio-Rad Laboratories, Hercules, Calif.) at 450 nm. Standard curves were plotted with 4 parameter fit with DeltaSoft® 1.6 software, and sample concentrations were determined from the standard curves.
(In general: In an ELISA, binding on a coated surface is turned into a signal by an enzyme label.)

Assay [3] shares this target. Nature of the assay: SPR (Biacore), factor B directly bound to the chip at low coverage, TA106 Fab flowed over. From the text:
(§2) The difference in the two Biacore data sets could be explained as either that the conformation of factor B changes when binding to the surface or that not all commercial factor B is active. This later Biacore experiment (with a fixed concentration of factor B bound to the chip) removed the factor B concentration from the calculation.
On the technique in general: Surface plasmon resonance follows binding to a sensor surface in real time, without labels.

The target is the same in assay [4]. Nature of the assay: SPR (Biacore), factor B bound directly to the chip, free TA106 Fab flowed; Chi2 0.901.
From the text: as §2

For assay [5] the target is unchanged. Description: SPR (Biacore), TA106 Fab captured on anti-Fab surface, soluble factor B 3.1-100 nM flowed; Chi2 0.206.
From the text: as §1

Assay [6] shares this target. Description: SPR (Biacore), factor B bound directly to the chip, free TA106 Fab flowed; Chi2 0.901 (the text rounds to 1.4 nM).
From the text: as §2

Assay [7] shares this target. Nature of the assay: SPR (Biacore 3000), Fab captured by human Fab binder on CM5 chip, soluble human factor B 3.1-200 nM; Fab captured on chip, soluble factor B. From the text:
Binding kinetics of mAbs were further characterized using Biacore's Surface Plasmon Resonance (SPR) technology (GE Healthcare, Piscataway, N.J.). For a detailed description of SPR and its applications in affinity measurement, please see Karlsson and Larsson, Antibody Engineering: Methods and Protocols, Methods in Molecular Biology (2003), 248: 389-415. In one exemplary experiment, TA106 Fab and derivative mAbs were captured on chips of a Biacore 3000 analyzer and samples of human factor B of different concentrations were flowed as the antigen over the surface to model soluble human factor B binding, using protocols recommended by the manufacturer (e.g., in the product brochure #BR-9003-31). All these referenced publications are hereby incorporated by reference in their entirety. […] Fab TA106 (Xoma, Lot#TTA1007, 20 mg/mL) was then flowed over one flow cell, followed by injections of human factor B on both flow cells. Concentrations (factor B) between 3.1-200 nM were run. The surface was regenerated between each cycle. […] The affinities of mAbs, i.e., CLS011, CLS012, and CLS013, were determined using a similar capture approach. In one exemplary experiment, human anti-Fc antibody was amine coupled to two flow cells of a CM5 chip. Each of the TA106-originated mAbs was then flowed over one flow cell, followed by injecting human factor B (3.1-200 nM) on both flow cells. […]

B1: TA106 Fab (humaneered anti-factor B Fab, expressed in E. coli) (Fab, V domains shown)
VH: QVQLVQSGAEVKKPGASVKVSCKASGYSFTDYYMTWVRQAPGQGLEWMGWINPNSGGTKYAQKFQGRVTMTRDTSISTAYMELSRLRSDDTAVYYCARGYYANSAWFAYWGQGTLVTVSS
VL: DIVMTQSPDSLAVSLGERATINCKSSQSLLNSSTSKNYLAWYQQKPGQPPKLLIYWASTRESGVPDRFSGSGSGTDFTLTISSLQAEDVAVYYCKQVYNLPWTFGQGTKLEIKR
notes: Fab made in E. coli by Xoma, not glycosylated; also called Fab TA106; TA106 wild type Fab
B1: the Kd was 1.5 nM in assay [1], 1.4 nM in assay [3], 1.39 nM in assay [6] and approximately 24.9 nM in assay [7]. Further, in assay [2], the response was half-maximal at 0.57 nM (EC50). Also, the koff amounted to 0.00305 s⁻¹ in assay [4] and 0.00338 s⁻¹ in assay [5]. Besides, the kon in assay [4] stood at 2.2e+06 M⁻¹ s⁻¹; in assay [5] it was 136000 M⁻¹ s⁻¹.
